Results as given in patent US20070036810A1, “Cyclic amp response element activator proteins and uses related thereto” (priority 2003, published 2007).
Read-outs that look alike come from different tables or passages of the source.

Legend:
[1] = target: T1, CREB-GAL4 fusion molecule (UniProt P04386+P16220); experiment: In vivo kinase assay, CREB-GAL4 fusion in HLR cells; format: cell-based; conditions: 40 hours after transfection
T1 construct: host or cells: HLR cell line (5x GAL4 element-luciferase reporter)
Description: For in vivo kinase assay, activation domains of CREB or ATF2 transcription factors fused with the yeast GAL4 DNA binding domain (1-147 Amino Acids) constructs are used (Stratagene, PathDetect In Vivo Signal Transduction Pathway trans-reporting Systems). The HLR cell line that contains a 5× GAL4 DNA binding element and TATA box driving luciferase reporter is used per manufacturer's protocol (Stratagene). 10^4 HLR cells are split into each well of 96 well tissue culture plates. After 16 hours, cells are transfected with 100 ng of Creb-GAL4 or ATF2-GAL4 fusion constructs, 30 ng of Renilla luciferase control plasmid together with 100 ng of pCMVSPORT6, pCMVSPORT-CREAP1, pFC-PKA or pFC-MEKK (Stratagene) activator plasmids respectively. Transfection is done with Fugene6 reagent (Roche Molecular Biochemicals, Basel, Switzerland) according to the manufacturers manual. Forty hours after transfection, a Dual-Glo Luciferase assay (Promega) is conducted using the manufacturer's protocol.
As CREAP1 strongly activates CRE promoter transcription, we next investigated whether CREAP1 works through the CREB pathway. […]

[2] = test system: cAMP responsive genes in HeLa cells; conditions: vs pCMV-Sport6 vector
Source text: HeLa cells are transfected with CREAP1 as described herein or expression constructs containing relA, (Ruben S M et al., Science 1991 Mar. 22;251(5000):1490-3), MAP3K11 (Hartkamp, J. et al., (1999). Cancer Res. 59, 2195-2202) or ANKRD3 (Muto, A., et al., (2002) J. Biol. Chem. 277, 31871-31876.) using Targefect F1 transfection reagent (Targeting Systems, Santee, Calif.) according to the protocol supplied with the product. Briefly, HeLa cells are used for the transfection at 70-80% of confluency in T75 tissue culture flasks (Falcon). Transfection mixes are prepared as follows: to 50 ml conical tube (Falcon) with 8 ml of Opti-MEM I 20 μg of selected plasmid DNA is added and mixed by flicking the tube. Two transfections are set up with pCMV-Sport6 empty vector. Targefect F-1 stock solution is vortexed at full speed for 20 seconds and 40 μl are added to each tube, mixed again by flicking the tube and incubated at room temperature for 30 minutes to allow formation of transfection complexes. HeLa cells are washed twice with 20 ml of Opti-MEM I medium and […] of each transfection complex are added per 1 T75 flask. After 4 hrs of incubation at 37° C. 8 ml of growth media with serum is added to each flask. The media is replaced the next day. 56 hours post-transfection the media is replaced again and to one of the flasks transfected with pCMV-Sport6 plasmid TNFα (R&D Systems) is added at 50 ng/ml and the incubation is continued at 37° C. for the next 16 hours. 72 hours post-transfection cells are collected in 10 ml of TRIzol reagent (Gibco BRL) and frozen at −80° C. Total RNA is isolated according to the protocol supplied with the TRIzol reagent. Synthesis labeling of double-stranded cDNA probes, Affymetrix Gene-Chip hybridization and data analysis are done according to conventional methods (see also Eberwine, J., et al., J. Neurosci. 21, 8310-8314 and Hakak, Y., et al., (2001) Proc. Natl. Acad. Sci. U.S.A. 98, 4746-4751).
To determine if CREAP1 regulates expression of authentic CREB targets, cellular gene expression was measured using DNA microarrays after overexpression of CREAP1. Briefly, HeLa cells were transiently transfected with pCMV-Sport6, CREAP1 using Targefect F1 reagent (Targeting Systems). One half of pCMV-Sport6 transfected cells were left untreated and was used as a negative control. Total RNA isolation, labeled probe preparation and DNA microchip hybridization protocol were performed as described above.

T1 sequence (P04386+P16220 fused): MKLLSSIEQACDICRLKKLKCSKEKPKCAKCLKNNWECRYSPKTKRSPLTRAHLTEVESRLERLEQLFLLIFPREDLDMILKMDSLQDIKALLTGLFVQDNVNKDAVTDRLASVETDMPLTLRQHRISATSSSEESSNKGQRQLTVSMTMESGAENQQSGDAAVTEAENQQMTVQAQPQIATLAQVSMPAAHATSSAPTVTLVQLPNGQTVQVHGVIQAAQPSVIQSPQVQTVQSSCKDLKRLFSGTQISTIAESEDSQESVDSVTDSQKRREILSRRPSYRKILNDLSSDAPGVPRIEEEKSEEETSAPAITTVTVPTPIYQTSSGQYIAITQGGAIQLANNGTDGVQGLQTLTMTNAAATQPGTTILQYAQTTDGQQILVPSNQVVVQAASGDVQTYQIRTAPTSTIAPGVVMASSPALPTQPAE

B1: CREAP1: human CRE activating protein 1, 650 amino acids, SEQ ID NO 2; expressed from pCMVSPORT-CREAP1 (protein)
chain: MATSNNPRKFSEKIALHNQKQAEETAAFEEVMKDLSLTRAARLQLQKSQYLQLGPSRGQYYGGSLPNVNQIGSGTMDLPFQPSGFLGEALAAAPVSLTPFQSSGLDTSRTTRHHGLVDRVYRERGRLGSPHRRPLSVDKHGRQADSCPYGTMYLSPPADTSWRRTNSDSALHQSTMTPTQPESFSSGSQDVHQKRVLLLTVPGMEETTSEADKNLSKQAWDTKKTGSRPKSCEVPGINIFPSADQENTTALIPATHNTGGSLPDLTNIHFPSPLPTPLDPEEPTFPALSSSSSTGNLAANLTHLGIGGAGQGMSTPGSSPQHRPAGVSPLSLSTEARRQQASPTLSPLSPITQAVAMDALSLEQQLPYAFFTQAGSQQPPPQPQPPPPPPPASQQPPPPPPPQAPVRLPPGGPLLPSASLTRGPQPPPLAVTVPSSLPQSPPENPGQPSMGIDIASAPALQQYRTSAGSPANQSPTSPVSNQGFSPGSSPQHTSTLGSVFGDAYYEQQMAARQANALSHQLEQFNMMENAISSSSLYSPGSTLNYSQAAMMGLTGSHGSLPDSQQLGYASHSGIPNIILTVTGESPPSLSKELTSSLAGVGDVSFDSDSQFPLDELKIDPLTLDGLHMLNDPDMVLADPATEDTFRMDRL
modifications: human
With B1 the “transactivation of the CREB-GAL4 fusion molecule on the GAL4 promoter” value [1] was “strongly stimulates”, the “Fold Activation” value ([2]; CAPL protein mRNA (38088_r_at)) was 19 and the “Fold Activation” value ([2]; DKFZp566K192 mRNA (32242_at)) was 32. For the same molecule, the “Fold Activation” value ([2]; Exodus-1 mRNA (40385_at)) was 15, the “Fold Activation” value ([2]; IL-8 mRNA (1369_s_at)) was 2.5 and the “Fold Activation” value ([2]; KIAA0467 mRNA (41458_at)) was 12. For the same molecule, the “Fold Activation” value ([2]; PEPCK mRNA (33702_f_at)) was 32, the “Fold Activation” value ([2]; TSHa mRNA (39352_at)) was 57 and the “Fold Activation” value ([2]; amphiregulin mRNA (34898_at)) was 19.
